The values that follow come from paper PMC7761207, “Molecular Characterization of the Burkholderia cenocepacia dcw Operon and FtsZ Interactors as New Targets for Novel Antimicrobial Design” (Antibiotics, 2020).

The labels stand for the following.
B2: B. cenocepacia J2315 FtsZ, BACTH hybrid (natural protein, Burkholderia cenocepacia J2315, UniProt B4E5Y7 1-398, looked up)
chain: MEFEMLETETNGTIIKVVGVGGAGGNAVQHMINRGVQGVDFIVMNTDAQALSRSRASSVIQLGNTGLGAGAKPEMGRAAAEEARERIADALRGAHMVFITAGMGGGTGTGAAPVVAQIAKEMGILTVGVVSKPFEFEGGKRMRVAEAGSQQLEDHVDSLIVVLNDKLFDVMGDDAEMDKCFQCADDVLNNAVAGIAEIINVDGLVNVDFEDVKTVMGEQGKAMMGTATVAGVDRARLAAEQAVASPLLEGVDLSGARGVLVNITSSRSLRLSETREVMNTIKSYAAEDATVIFGAVYDDAMGDALRVTVVATGLGRAAKKQQSAPMTLLRTGTDNQPVSAVSHGYAPAQHVSTADYGALDTPAVWRNSRETAASHVQALQEKGVDTYDIPAFLRKQAD
notes: FtsZ of Burkholderia cenocepacia J2315; gene amplified from genomic DNA; Cloned in all four BACTH vectors (pUT18, pUT18C, pKT25, pKNT25); by its place between BCAL3458 and BCAL3456 probably BCAL3457 (surmised); source: bacterial two-hybrid (BACTH) fusion, E. coli BTH101
B3: B. cenocepacia J2315 FtsA, BACTH hybrid (natural protein, Burkholderia cenocepacia J2315, UniProt B4E6I8 1-410, looked up)
chain: MSKDYKDLLVSLDIGTSKVVAIVAELKGEGHYEVIGLGQSESKGLKKGVVVNIEATVQSIQRALEEAELMADCKITNVFTGIAGSHIRSFNSSGMVAIKDKEVTQTDVARVIETAKAINIPTDQQVLHILTQEFIIDGQEDVREPIGMSGIRLEVKVHIVTGAVSAAQNIVKCVRRCGLEVNDLILQPLASSLAVLTEDEKDLGVVLVDIGGGTTDIAIFAEGAIRHTAVIPIAGDQITSDIAMALRTPTPDAEDIKVGYGIAKQALADPDEMVEVPGLGERGPRTLSRQALAAVIEPRVEELFSLVQQVVRESGYEELLSSGVVITGGASMMPGMVELGEDIFLKPVRIGAPEYAGGLSDVVRNPRYSTAMGLLVEGSAQRMRGRKVAVQSGNAGQVFSRMKEWFLSNF
notes: FtsA of Burkholderia cenocepacia J2315 (gene ftsA, BCAL3458); Cloned in all four BACTH vectors; source: bacterial two-hybrid (BACTH) fusion, E. coli BTH101

Read-outs that look alike come from different tables or passages of the source.

The target in data set [1] is T1, MraZ (Burkholderia cenocepacia J2315) (UniProt B4E6K1).
T1 sequence: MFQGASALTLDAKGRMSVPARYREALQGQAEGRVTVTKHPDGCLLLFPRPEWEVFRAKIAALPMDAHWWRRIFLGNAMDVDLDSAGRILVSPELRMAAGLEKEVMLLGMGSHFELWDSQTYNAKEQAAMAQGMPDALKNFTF
In words: competition. Conditions: 20 mM Tris-HCl pH 7.5, 100 mM NaCl, 5 mM MgCl2, 0.1 mM DTT, 150 ng/uL BSA, 50 ng/uL herring sperm DNA, 30 min 37 C; 1.5% agarose in 0.5x TBE at 4 C.

Data set [2] has as its target B2. Briefly: two-hybrid; BACTH (bacterial adenylate cyclase two-hybrid) in E. coli cya strain BTH101; T18 and T25 hybrids; beta-galactosidase on LB-IPTG-X-Gal and MacConkey plates and in liquid culture, 30 C; at least four-fold over BTH101(pUT18/pKT25) counted as an interaction.
Data set [3] concerns the target B. cenocepacia J2315 FtsZ, BACTH hybrid (Burkholderia cenocepacia J2315) (UniProt B4E5Y7). The description is as above.
The target in data set [4] is B3. The description is as above.
Data set [5] deals with T1, MraZ (Burkholderia cenocepacia J2315). In words: EMSA. Conditions: 20 mM Tris-HCl pH 7.5, 100 mM NaCl, 5 mM MgCl2, 0.1 mM DTT, 150 ng/uL BSA, 50 ng/uL herring sperm DNA, 30 min 37 C; 1.5% agarose in 0.5x TBE at 4 C.
Data set [6] concerns the target B. cenocepacia FtsZ, protein of the sedimentation assays (Burkholderia cenocepacia). In words: co-sedimentation; with vesicles of E. coli total lipid extract (2 mg/mL); proteins 12 uM, 25 mM PIPES pH 6.8, 10 mM MgCl2, 2 mM GTP and/or ATP; 10 min 30 C; 20,000 x g 25 min 20 C.
Data set [7] deals with the molecule itself. Briefly: two-hybrid; BACTH (bacterial adenylate cyclase two-hybrid) in E. coli cya strain BTH101; T18 and T25 hybrids; beta-galactosidase on LB-IPTG-X-Gal and MacConkey plates and in liquid culture, 30 C; at least four-fold over BTH101(pUT18/pKT25) counted as an interaction.

For the molecule “AAGTTGCACTAGCTCATTCATTTATAACGGTTTTTGGAATGAGGGGTCGCATGAGCATGTGCGCGTAAGTCCTTGTTCTAACTAACAAAATTCGTCAAAAAAGCGGGCCGCTCCCTTGACCGTGCCACACCCTTCCTCTAAAGTGGGAGACAGTGTGAGAAAGTGTATTTTTGTGTGATTTAGCAGGCTATTCCGGCTAAATTCTCAGCATTGAGCGGGTGCTTCGGTGCCCTGAACGGGAGAGCGGAAA (double strand) [BS2 unlabeled]”, in data set [1], the binding result is given as “binds”. On to “B. cenocepacia J2315 ZapA, BACTH hybrid (natural protein)”, for which the β-galactosidase activity, fold over the control strain in data set [2] came to 10 fold.

As to “B. cenocepacia J2315 FtsE, BACTH hybrid (natural protein)”, the β-galactosidase activity, fold over the control strain in data set [2] came to 50 fold. On to “B. cenocepacia J2315 FtsQ, BACTH hybrid (natural protein)”, for which, in data set [3], the β-galactosidase activity, fold over the control strain turned out to be 16 fold.

For “B. cenocepacia J2315 FtsN, BACTH hybrid (natural protein)”, the β-galactosidase activity, fold over the control strain in data set [4] turned out to be 5 fold. Regarding “AAGTTGCACTAGCTCATTCATTTATAACGGTTTTTGGAATGAGGGGTCGCATGAGCATGTGCGCGTAAGTCCTTGTTCTAACTAACAAAATTCGTCAAAAAAGCGGGCCGCTCCCTTGACCGTGCCACACCCTTCCTCTAAAGTGGGAGACAGTGTGAGAAAGTGTATTTTTGTGTGATTTAGCAGGCTATTCCGGCTAAATTCTCAGCATTGAGCGGGTGCTTCGGTGCCCTGAACGGGAGAGCGGAAA (double strand) [BS2-6-Fam]”, the binding entry in data set [5] is recorded as “binds”.

In data set [6], “B. cenocepacia FtsZ, protein of the sedimentation assays (natural protein)” showed a percent of the protein in the pellet fraction of 50%. For “GGAGCGGCCCGCTTTTTTGACGAATTTTGTTAGTTAGAACAAGGACTTACGCGCACATGCTCATGCGACCCCTCATTCCAAAAACCGTTATAAATGAATGAGCTAGTGCAACTTGTGAAGGTGATACGTGAGAAAGACGGCCCAGACGGGCGTGCGGACGGGGCTTTCGGGGGCGGGAAAACGAGGAGTGAGCGGGCGGTATCGGGGGCGGTGAACCGGGGCGGCGTCCCACGCCACCCCGGCGCCAATC (double strand) [BS1-6-Fam]”, the binding entry in data set [5] is given as “no binding”.

B1: putative SulA (pBCA006) of B. cenocepacia J2315, BACTH hybrid (natural protein, Burkholderia cenocepacia J2315, UniProt B4EQP0 1-238, looked up)
chain: MHPALAHPEAIHPALWRASQLARPSVRGVDTGHLELTAELPGGGWPAGALIELLAPQPGIGELRLLAPVLARTAGKPVMLIQPPHALQPLALAYWGIDPSGFVTLPAPRTADALWAAEQALRAGTCAAVLLWQSHVRADALRRLNLAAQSGQALFYLFRPVAAARDASPAPLRLALAPKRDGIDVTFLKRRGPARDTPLFVPLSPSPILLNRHASLDRRASAAPQPRSVPATIAGAVA
notes: putative SulA, product of gene pBCA006 of Burkholderia cenocepacia J2315; Cloned in all four BACTH vectors; source: bacterial two-hybrid (BACTH) fusion, E. coli BTH101
For B1, the “β-galactosidase activity, fold over the control strain” value (shortened to “β-galactosidase activity, fold”) in data set [2] (partners not purified) was found to be 25 fold. As to B2, in data set [7], the “β-galactosidase activity, fold” value is 5 fold. In the case of B3, the “β-galactosidase activity, fold” value in data set [2] (partners not purified) stood at 5 fold.

B4: B. cenocepacia J2315 ZipA, BACTH hybrid (natural protein, Burkholderia cenocepacia J2315, UniProt B4ECN7 1-424, looked up)
chain: MDELTLGLIGAGAVVVGGVVVYNAWQGAKVRRRMPRPMPEEAAEAMNRPERDEELPFIEPVRQPVRREPAAPVAAATAAAETARVEPTFGGAAPADTPADLQAEATGVDTSAESSEPAAGEEAVPAATHDAAAEPAEPTEPVMPAATTVSSAPPAIVDRRIDCIVPIRLTGPLPGDKILPVAQRLRRAGSKPVHIEGKPEGGQWELLQNGVRYEELRAAAQLANRSGALNELEFSEFVTGVQQFADAIDGAPEFPDMMETVAMARELDAFAAQCDAQLSINVMSDGAPWSANYVQAVASQDGLLLSRDGTRFVKLDAKQNPVFMLQFGDTNFLRDDLTYKGGNMITLVLDVPVAEEDILPFRLMCDYAKSLSERIGARVVDDSRRPLPESTLLAIEQQLMKLYAKLEEAGIPAGSPVTRRLFSQ
notes: ZipA of Burkholderia cenocepacia J2315 (gene zipA, BCAL2097); Cloned in all four BACTH vectors; source: bacterial two-hybrid (BACTH) fusion, E. coli BTH101
For B4, the “β-galactosidase activity, fold” value in data set [2] (partners not purified) is 4.5 fold; in data set [4] (partners not purified), 32 fold.
